These results are taken from US20260130997A1 (BEAM THERAPEUTICS, published 2026).

Numbering of substitutions follows the chain as printed.

Experiment in all cases: binding to mutant CD45 D1-D2 protein relative to WT CD45 D1-D2; method not given
For assay [1], the target named is T1, mutant CD45 D1-D2 protein N257G (Homo sapiens, UniProt P08575 225-394, limits assumed).
T1 chain: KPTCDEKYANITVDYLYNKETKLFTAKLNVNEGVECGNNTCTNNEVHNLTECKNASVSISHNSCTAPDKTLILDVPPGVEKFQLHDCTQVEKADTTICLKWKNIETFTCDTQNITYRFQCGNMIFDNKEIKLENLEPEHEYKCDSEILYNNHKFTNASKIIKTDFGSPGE

In assay [2] the target is T2, mutant CD45 D1-D2 protein I283M, H285R (Homo sapiens, UniProt P08575 225-394, limits assumed).
T2 chain: T1 chain with G33N, I59M, H61R

The target in assay [3] is T3, mutant CD45 D1-D2 protein T264A (Homo sapiens, UniProt P08575 225-394, limits assumed).
T3 chain: T1 chain with G33N, T40A

Assay [4] concerns the target T4, mutant CD45 D1-D2 protein N263G, T264A (Homo sapiens, UniProt P08575 225-394, limits assumed).
T4 chain: T1 chain with G33N, N39G, T40A

The target of assay [5] is T5, mutant CD45 D1-D2 protein I283M (Homo sapiens, UniProt P08575 225-394, limits assumed).
T5 chain: T1 chain with G33N, I59M

Assay [6] deals with T6, mutant CD45 D1-D2 protein N263S, T264A (Homo sapiens, UniProt P08575 225-394, limits assumed).
T6 chain: T1 chain with G33N, N39S, T40A

Assay [7] concerns the target T7, mutant CD45 D1-D2 protein N263S, T264A, T266A (Homo sapiens, UniProt P08575 225-394, limits assumed).
T7 chain: T1 chain with G33N, N39S, T40A, T42A

Assay [8] has as its target T8, mutant CD45 D1-D2 protein N267G, N268G (Homo sapiens, UniProt P08575 225-394, limits assumed).
T8 chain: T1 chain with G33N, N43G, N44G

Assay [9] concerns the target T9, mutant CD45 D1-D2 protein N286G (Homo sapiens, UniProt P08575 225-394, limits assumed).
T9 chain: T1 chain with G33N, N62G

For assay [10], the target named is T10, mutant CD45 D1-D2 protein N253G, N255G (Homo sapiens, UniProt P08575 225-394, limits assumed).
T10 chain: T1 chain with N29G, N31G, G33N

B1: mAb U139AGL030-9 (mAb030-9) (antibody, mouse IgG1, kappa, V domains shown)
VH: EVKLLESGGGLVQPGGSLKLSCAASGFDFSRYWMSWVRQAPGKGLEWIGEINPTSSTINFTPSLKDKVFISRDNAKNTLYLQMSKVRSEDTALYYCARGNYYRYGDAMDYWGQGTSVTVSS
VL: DIALTQSPASLAVSLGQRATISCRASKSVSTSGYSYLHWYQQKPGQPPKLLIYLASNLESGVPARFSGSGSGTDFTLNIHPVEEEDAATYYCQHSRELPFTFGSGTKLEIKR
notes: In the biosensor assay the antibody was captured with Anti-Human IgG Fc Capture (AHC); also called mAb30-9; mAb039-9
As for B1, the “% Mutant Binding” value in assay [1] worked out at 1.7%; in assay [2], 1%; in assay [3] it was 112%; in assay [4] it was 106%; in [5], 12.9%; in assay [6] it was 122%. Moreover, the “% Mutant Binding” value was 69.3% in assay [7], 1.3% in assay [8], 81.5% in [9] and 44.9% in assay [10].
